Patent publication US20230293578A1, “TREATMENT OF BACTERIAL VAGINOSIS” (priority 2020, published 2023)

How the values were obtained:
[1] = in vivo
From the text: Zinc levels in vaginal fluid of BV have also been measured. Recommended zinc levels for bacterial growth are not readily available as zinc toxicity is low and the capacity of bacteria to store zinc is high, thus contributing to a very wide range of acceptable zinc levels that will support bacterial growth. […] Furthermore, in an L. iners based microbiome that has not progressed to full blown BV, a significant increase in calprotectin is also seen. Thus, when an altered microbiome takes hold, the body appears to be an active conspirator in discouraging L. Crispatus-type re-growth.
The remainder is expelled. This means that free iron is released from a dose of bovine lactoferrin that is partially saturated with iron and may become accessible to bacteria. Even if the released iron is immediately bound by the remaining lactoferrin, this proteolysis will inevitably increase the overall saturation percentage of the remaining bovine lactoferrin. In turn, it will also increase the saturation of human lactoferrin, since bovine and human forms exist in relative equilibrium considering that their bindings constants are similar. It also follows, that lowering the initial iron saturation of bovine lactoferrin will lower human lactoferrin's iron saturation levels and thus provide the least access to the bacterial binding proteins that scavenge iron from human lactoferrin. […]

Gardnerella vaginalis = test: G. vaginalis growth in liquid culture, viability as CFU
Description: G. vag isolates were recovered from the vaginal discharge of BV positive patients and identification at the species level was performed by species-specific PCR using the primer pairs G. vaginalis V2-R1 and G. vaginalis V6-U2.
Cells were grown in aerobic conditions at 37° C. at 5% CO2 in PMD medium. PMD medium contains: proteose peptone No. 3 (BD211693) 15 g/L, maltone 2 g/L, dextrose 1 g/L, Na2HPO2 1 g/L, NaH2PO4 1 g/L adjusted to pH6.8. High Iron PMD medium additional contains 500 mg/L human hemoglobin. No Iron PMD is prepare by treating PMD medium with Chelex® 100 Chelating Resin (Bio-Rad Cat #1432832) then adding back 0.1 mM magnesium sulfate, 0.1 mM calcium chloride, and 10 μM zinc chloride. Low Iron PMD medium is prepared by adding 10 μM ferric ammonium citrate (FAC) to No Iron PMD. Overnight broth cultures of G. vaginalis were grown in High Iron PMD, centrifuged, resuspended No Iron PMD, incubated for 2 hr at 37° C. then diluted to 2.5×10^7 cells/mL in Low Iron PMD. Cells were grown in liquid culture for 24-48 hr then plated on agar to assess viability (expressed as colony forming units per mL (CFU)). Bulk bLF was dissolved in water and diluted in culture medium.

G. vag strain 14.2 = test: antibiotic synergy testing, checkerboard cross dilution method in broth cultures; format: cell-based, Gardnerella vaginalis; conditions: 4 mg/mL bLF, 24 hr

B1: bovine lactoferrin (protein, UniProt P24627 20-708, looked up)
Lactotransferrin: APRKNVRWCTISQPEWFKCRRWQWRMKKLGAPSITCVRRAFALECIRAIAEKKADAVTLDGGMVFEAGRDPYKLRPVAAEIYGTKESPQTHYYAVAVVKKGSNFQLDQLQGRKSCHTGLGRSAGWIIPMGILRPYLSWTESLEPLQGAVAKFFSASCVPCIDRQAYPNLCQLCKGEGENQCACSSREPYFGYSGAFKCLQDGAGDVAFVKETTVFENLPEKADRDQYELLCLNNSRAPVDAFKECHLAQVPSHAVVARSVDGKEDLIWKLLSKAQEKFGKNKSRSFQLFGSPPGQRDLLFKDSALGFLRIPSKVDSALYLGSRYLTTLKNLRETAEEVKARYTRVVWCAVGPEEQKKCQQWSQQSGQNVTCATASTTDDCIVLVLKGEADALNLDGGYIYTAGKCGLVPVLAENRKSSKHSSLDCVLRPTEGYLAVAVVKKANEGLTWNSLKDKKSCHTAVDRTAGWNIPMGLIVNQTGSCAFDEFFSQSCAPGADPKSRLCALCAGDDQGLDKCVPNSKEKYYGYTGAFRCLAEDVGDVAFVKNDTVWENTNGESTADWAKNLNREDFRLLCLDGTRKPVTEAQSCHLAVAPNHAVVSRSDRAAHVKQVLLHQQALFGKNGKNCPDKFCLFKSETKNLLFNDNTECLAKLGGRPTYEEYLGTEYVTAIANLKKCSTSPLLEACAFLTR
notes: bulk bLF dissolved in water for in vitro tests
share of a vaginal dose broken down via vaginal or bacterial proteases [1]: ≤ 20%
concentration range of dose-dependent inhibition of G. vag growth (Gardnerella vaginalis; G. vag isolate 14.2, Low Iron PMD, FIG. 2): 0.5 to 32 mg/mL
effect on G. vaginalis growth (Gardnerella vaginalis; iron-containing bovine lactoferrin preparation): growth suppression
growth inhibited (G. vag strain 14.2): 19.3%
